In paper PMC9482650, “Quantitative fragmentomics allow affinity mapping of interactomes” (Nature Communications, 2022):
One block for each binder: values may come before it.

What was measured:
Assay in all cases: holdup assay
Parameters in all cases: key: below the threshold = too weak to quantify, mostly under pKd 3.1 to 4
Details in all cases: plain residues with an end cap or a label only (N-terminal biotin on a linker: ado-ado)
[1] = molecular target: DLG4_1, P78352
[2] = molecular target: GRID2IP_1, A4D2P6
[3] = molecular target: NOS1, P29475
[4] = molecular target: T1, MPP2, Q14168
T1 sequence (Q14168 180-250, limits assumed, looked up): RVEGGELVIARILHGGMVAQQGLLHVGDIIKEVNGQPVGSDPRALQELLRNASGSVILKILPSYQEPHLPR

[5] = molecular target: MAGI2_6, Q86UL8
[6] = molecular target: T2, NHERF3_3, Q5T2W1
T2 sequence (Q5T2W1 238-333, limits assumed, looked up): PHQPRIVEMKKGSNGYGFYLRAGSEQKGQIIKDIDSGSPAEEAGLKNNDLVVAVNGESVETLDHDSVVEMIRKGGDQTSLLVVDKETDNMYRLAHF

[7] = molecular target: NHERF4_1, Q86UT5-2
[8] = molecular target: PICK1, Q9NRD5
[9] = molecular target: T3, TJP3_3, O95049
T3 sequence (O95049 375-456, limits assumed, looked up): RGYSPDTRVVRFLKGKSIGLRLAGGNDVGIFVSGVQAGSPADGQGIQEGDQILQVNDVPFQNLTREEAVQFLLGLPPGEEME

[10] = molecular target: Inadl_8, Q8NI35
[11] = molecular target: MAGI2_2, Q86UL8
[12] = molecular target: T4, TIAM2, Q8IVF5
T4 sequence (Q8IVF5 885-986, limits assumed, looked up): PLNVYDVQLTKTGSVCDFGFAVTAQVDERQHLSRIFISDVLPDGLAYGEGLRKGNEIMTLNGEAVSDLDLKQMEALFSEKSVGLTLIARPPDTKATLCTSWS

[13] = molecular target: IL16_1, Q14005
[14] = molecular target: T5, PCLO, Q9Y6V0
T5 sequence (Q9Y6V0 4491-4600, limits assumed, looked up): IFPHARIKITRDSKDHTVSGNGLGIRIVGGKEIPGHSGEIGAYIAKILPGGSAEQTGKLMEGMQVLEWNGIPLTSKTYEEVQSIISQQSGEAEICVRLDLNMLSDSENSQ

[15] = molecular target: T6, DFNB31_3, Q9P202
T6 sequence (Q9P202 811-907, limits assumed, looked up): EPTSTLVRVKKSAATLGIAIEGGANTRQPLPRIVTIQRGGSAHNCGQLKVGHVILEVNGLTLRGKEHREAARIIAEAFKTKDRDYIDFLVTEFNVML

[16] = molecular target: GORASP1, Q9BQQ3
[17] = molecular target: DLG2_2, Q15700
[18] = molecular target: T7, NHERF3_1, Q5T2W1
T7 sequence (Q5T2W1 4-100, limits assumed, looked up): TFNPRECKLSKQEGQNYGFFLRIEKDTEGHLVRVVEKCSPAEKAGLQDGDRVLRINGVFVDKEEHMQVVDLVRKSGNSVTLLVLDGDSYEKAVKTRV

[19] = molecular target: DLG4_2, P78352
[20] = molecular target: T8, SHANK1, Q9Y566
T8 sequence (Q9Y566 658-767, limits assumed, looked up): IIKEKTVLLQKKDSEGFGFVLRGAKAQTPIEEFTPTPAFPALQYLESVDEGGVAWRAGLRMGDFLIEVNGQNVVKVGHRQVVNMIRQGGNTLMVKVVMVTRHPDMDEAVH

[21] = molecular target: FRMPD2_3, Q68DX3
[22] = molecular target: TJP1_3, Q07157
[23] = molecular target: PTPN3, P26045
[24] = molecular target: Inadl_6, Q8NI35
[25] = molecular target: T9, GRIP1_5, Q9Y3R0
T9 sequence (Q9Y3R0 568-668, limits assumed, looked up): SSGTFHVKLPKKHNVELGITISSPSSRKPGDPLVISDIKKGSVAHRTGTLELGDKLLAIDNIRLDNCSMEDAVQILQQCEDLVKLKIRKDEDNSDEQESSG

[26] = molecular target: DLG5_1, Q8TDM6
[27] = molecular target: T10, LNX2_2, Q8N448
T10 sequence (Q8N448 334-432, limits assumed, looked up): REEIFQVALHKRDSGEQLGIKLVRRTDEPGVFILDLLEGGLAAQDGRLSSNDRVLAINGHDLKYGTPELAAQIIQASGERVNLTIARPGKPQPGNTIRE

Chain of MAGI2_2, Q86UL8 (Q86UL8 410-522): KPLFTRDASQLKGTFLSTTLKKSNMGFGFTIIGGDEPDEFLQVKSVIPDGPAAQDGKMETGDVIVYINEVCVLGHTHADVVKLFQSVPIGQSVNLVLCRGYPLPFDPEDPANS
Chain of NHERF4_1, Q86UT5-2 (Q86UT5 other isoform, or with tags, fused parts or gaps): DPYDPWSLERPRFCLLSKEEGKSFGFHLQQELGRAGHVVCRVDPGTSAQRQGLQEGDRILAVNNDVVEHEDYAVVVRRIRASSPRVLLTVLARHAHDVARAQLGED
Chain of DLG5_1, Q8TDM6 (Q8TDM6 617-713): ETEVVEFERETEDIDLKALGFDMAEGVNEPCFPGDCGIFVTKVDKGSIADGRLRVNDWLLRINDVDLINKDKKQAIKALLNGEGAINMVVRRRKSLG
Chain of FRMPD2_3, Q68DX3 (Q68DX3 1073-1166): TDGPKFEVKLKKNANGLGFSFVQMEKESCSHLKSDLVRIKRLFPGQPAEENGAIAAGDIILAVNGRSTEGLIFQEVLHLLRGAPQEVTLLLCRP
Chain of GRID2IP_1, A4D2P6 (A4D2P6 1-87): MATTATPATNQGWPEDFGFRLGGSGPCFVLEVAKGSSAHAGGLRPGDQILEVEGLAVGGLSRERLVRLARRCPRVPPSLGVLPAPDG
Chain of PTPN3, P26045 (P26045 505-587): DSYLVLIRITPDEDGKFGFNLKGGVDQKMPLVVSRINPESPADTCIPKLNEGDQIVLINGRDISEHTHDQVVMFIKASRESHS
Chain of MAGI2_6, Q86UL8 (Q86UL8 1141-1229): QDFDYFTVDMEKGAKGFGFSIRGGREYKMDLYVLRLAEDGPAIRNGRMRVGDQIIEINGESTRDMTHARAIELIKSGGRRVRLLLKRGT
Chain of DLG2_2, Q15700 (Q15700 189-283): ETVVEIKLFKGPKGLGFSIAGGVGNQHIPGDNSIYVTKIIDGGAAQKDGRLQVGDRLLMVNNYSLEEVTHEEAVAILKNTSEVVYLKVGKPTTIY
Chain of IL16_1, Q14005 (Q14005 210-306): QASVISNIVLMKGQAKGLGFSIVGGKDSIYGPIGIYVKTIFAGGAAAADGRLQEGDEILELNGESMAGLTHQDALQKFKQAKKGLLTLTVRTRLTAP
Chain of Inadl_8, Q8NI35 (Q8NI35 1425-1530): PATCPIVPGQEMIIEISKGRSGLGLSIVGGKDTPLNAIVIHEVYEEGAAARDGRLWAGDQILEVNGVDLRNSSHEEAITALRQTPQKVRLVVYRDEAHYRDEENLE
Chain of GORASP1, Q9BQQ3 (Q9BQQ3 1-208): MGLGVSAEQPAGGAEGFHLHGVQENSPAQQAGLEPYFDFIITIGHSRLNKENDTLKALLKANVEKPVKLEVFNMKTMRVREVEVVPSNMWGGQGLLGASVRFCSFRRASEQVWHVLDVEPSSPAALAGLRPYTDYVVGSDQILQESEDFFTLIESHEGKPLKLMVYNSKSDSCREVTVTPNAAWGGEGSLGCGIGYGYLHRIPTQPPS
Chain of DLG4_2, P78352 (P78352 155-259): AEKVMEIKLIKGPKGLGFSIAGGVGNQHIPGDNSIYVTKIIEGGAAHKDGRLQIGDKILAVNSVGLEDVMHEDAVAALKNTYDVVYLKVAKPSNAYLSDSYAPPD
Chain of NOS1, P29475 (P29475 9-101): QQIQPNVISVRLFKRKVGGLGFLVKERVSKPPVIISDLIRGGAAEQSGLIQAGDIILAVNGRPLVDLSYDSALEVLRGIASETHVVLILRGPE
Chain of TJP1_3, Q07157 (Q07157 416-512): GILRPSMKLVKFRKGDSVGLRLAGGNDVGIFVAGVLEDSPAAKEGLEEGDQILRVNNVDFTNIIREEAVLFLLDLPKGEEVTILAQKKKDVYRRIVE
Chain of PICK1, Q9NRD5 (Q9NRD5 17-115): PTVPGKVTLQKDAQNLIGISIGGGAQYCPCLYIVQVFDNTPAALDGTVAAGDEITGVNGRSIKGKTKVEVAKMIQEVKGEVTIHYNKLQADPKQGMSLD
Chain of Inadl_6, Q8NI35 (Q8NI35 1058-1167): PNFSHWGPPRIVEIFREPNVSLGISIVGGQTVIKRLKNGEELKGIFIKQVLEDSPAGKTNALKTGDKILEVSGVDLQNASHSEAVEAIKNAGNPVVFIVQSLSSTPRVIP
Chain of DLG4_1, P78352 (P78352 62-152): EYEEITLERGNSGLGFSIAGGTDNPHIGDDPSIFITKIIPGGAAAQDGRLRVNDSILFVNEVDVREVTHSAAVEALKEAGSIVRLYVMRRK

pKd [1]: 3.83 | pKd [2]: below the threshold | pKd [3]: below the threshold | pKd [4]: below the threshold | pKd [5]: below the threshold | pKd [6]: below the threshold | pKd [7]: below the threshold | pKd [8]: below the threshold | pKd [9]: below the threshold | pKd [10]: below the threshold | pKd [11]: 3.64 | pKd [12]: below the threshold | pKd [13]: 3.84 | pKd [14]: below the threshold | pKd [15]: below the threshold | pKd [16]: below the threshold | pKd [17]: 3.5 | pKd [18]: 3.66 | pKd [19]: 3.91 | pKd [20]: below the threshold | pKd [21]: below the threshold | pKd [22]: below the threshold | pKd [23]: below the threshold | pKd [24]: below the threshold | pKd [25]: below the threshold | pKd [26]: below the threshold | pKd [27]: below the threshold
B1: SLCO2B1, O94956 (peptide)
chain: PGKKPEDSRV

pKd [1]: below the threshold | pKd [2]: below the threshold | pKd [3]: 3.58 | pKd [4]: below the threshold | pKd [5]: 4.85 | pKd [6]: below the threshold | pKd [7]: 4.52 | pKd [8]: 4.14 | pKd [9]: below the threshold | pKd [10]: 3.61 | pKd [11]: below the threshold | pKd [12]: 4.19 | pKd [13]: below the threshold | pKd [14]: below the threshold | pKd [15]: 4.89 | pKd [16]: 4 | pKd [17]: 3.81 | pKd [18]: 4.22 | pKd [19]: 4.02 | pKd [20]: 5.28 | pKd [21]: below the threshold | pKd [22]: below the threshold | pKd [23]: 4.62 | pKd [24]: 4.62 | pKd [25]: below the threshold | pKd [26]: below the threshold | pKd [27]: 3.93
B2: CACNA1D, Q01668 (peptide)
chain: ADEMICITTL

pKd [1]: below the threshold | pKd [2]: below the threshold | pKd [3]: 3.52 | pKd [4]: below the threshold | pKd [5]: below the threshold | pKd [6]: below the threshold | pKd [7]: below the threshold | pKd [8]: 3.94 | pKd [9]: below the threshold | pKd [10]: below the threshold | pKd [11]: below the threshold | pKd [12]: 3.96 | pKd [13]: below the threshold | pKd [14]: below the threshold | pKd [15]: below the threshold | pKd [16]: 3.7 | pKd [17]: below the threshold | pKd [18]: below the threshold | pKd [19]: below the threshold | pKd [20]: below the threshold | pKd [21]: below the threshold | pKd [22]: below the threshold | pKd [23]: 3.64 | pKd [24]: below the threshold | pKd [25]: below the threshold | pKd [26]: below the threshold | pKd [27]: below the threshold
B3: NEB, P20929 (peptide)
chain: MLPANYVEAI

pKd [1]: below the threshold | pKd [2]: below the threshold | pKd [3]: below the threshold | pKd [4]: below the threshold | pKd [5]: below the threshold | pKd [6]: below the threshold | pKd [7]: 3.57 | pKd [8]: 4.11 | pKd [9]: below the threshold | pKd [10]: below the threshold | pKd [11]: below the threshold | pKd [12]: below the threshold | pKd [13]: below the threshold | pKd [14]: below the threshold | pKd [15]: 3.94 | pKd [16]: below the threshold | pKd [17]: below the threshold | pKd [18]: below the threshold | pKd [19]: below the threshold | pKd [20]: below the threshold | pKd [21]: below the threshold | pKd [22]: below the threshold | pKd [23]: 4.04 | pKd [24]: below the threshold | pKd [25]: below the threshold | pKd [26]: below the threshold | pKd [27]: below the threshold
B4: HDAC7, Q8WUI4 (peptide)
chain: LVEEEEPMNL

pKd [1]: 4.35 | pKd [2]: below the threshold | pKd [3]: 3.81 | pKd [4]: 3.82 | pKd [5]: below the threshold | pKd [6]: below the threshold | pKd [7]: 4.27 | pKd [8]: below the threshold | pKd [9]: below the threshold | pKd [10]: 3.54 | pKd [11]: 4.76 | pKd [12]: below the threshold | pKd [13]: below the threshold | pKd [14]: below the threshold | pKd [15]: 3.99 | pKd [16]: 3.9 | pKd [17]: 3.79 | pKd [18]: 4.11 | pKd [19]: 4.13 | pKd [20]: below the threshold | pKd [21]: below the threshold | pKd [22]: below the threshold | pKd [23]: 3.61 | pKd [24]: below the threshold | pKd [25]: below the threshold | pKd [26]: below the threshold | pKd [27]: 5.39
B5: FAM167B, Q9BTA0 (peptide)
chain: NISARRFTLC

pKd [1]: 4.44 | pKd [2]: below the threshold | pKd [3]: 4.02 | pKd [4]: below the threshold | pKd [5]: 3.97 | pKd [6]: below the threshold | pKd [7]: below the threshold | pKd [8]: below the threshold | pKd [9]: below the threshold | pKd [10]: 3.5 | pKd [11]: 4.25 | pKd [12]: below the threshold | pKd [13]: 3.54 | pKd [14]: below the threshold | pKd [15]: 4.11 | pKd [16]: below the threshold | pKd [17]: 4.67 | pKd [18]: 5.21 | pKd [19]: 4.76 | pKd [20]: 3.76 | pKd [21]: below the threshold | pKd [22]: below the threshold | pKd [23]: 5.05 | pKd [24]: 3.85 | pKd [25]: below the threshold | pKd [26]: below the threshold | pKd [27]: below the threshold
B6: LRRC4, Q9HBW1 (peptide)
chain: TKDKVQETQI
